B1: Far upstream element-binding protein 2 (Homo sapiens), Q92945 (parent)
chain: MSDYSTGGPPPGPPPPAGGGGGAGGAGGGPPPGPPGAGDRGGGGPGGGGPGGGSAGGPSQPPGGGGPGIRKDAFADAVQRARQIAAKIGGDAATTVNNSTPDFGFGGQKRQLEDGDQPESKKLASQGDSISSQLGPIHPPPRTSMTEEYRVPDGMVGLIIGRGGEQINKIQQDSGCKVQISPDSGGLPERSVSLTGAPESVQKAKMMLDDIVSRGRGGPPGQFHDNANGGQNGTVQEIMIPAGKAGLVIGKGGETIKQLQERAGVKMILIQDGSQNTNVDKPLRIIGDPYKVQQACEMVMDILRERDQGGFGDRNEYGSRIGGGIDVPVPRHSVGVVIGRSGEMIKKIQNDAGVRIQFKQDDGTGPEKIAHIMGPPDRCEHAARIINDLLQSLRSGPPGPPGGPGMPPGGRGRGRGQGNWGPPGGEMTFSIPTHKCGLVIGRGGENVKAINQQTGAFVEISRQLPPNGDPNFKLFIIRGSPQQIDHAKQLIEEKIEGPLCPVGPGPGGPGPAGPMGPFNPGPFNQGPPGAPPHAGGPPPHQYPPQGWGNTYPQWQPPAPHDPSKAAAAAADPNAAWAAYYSHYYQQPPGPVPGPAPAPAAPPAQGEPPQPPPTGQSDYTKAWEEYYKKIGQQPQQPGAPPQQDYTKAWEEYYKKQAQVATGGGPGAPPGSQPDYSAAWAEYYRQQAAYYGQTPGPGGPQPPPTQQGQQQAQ

Variants of: B1
Details: with akt1_human AKT1, P31749
Sequence of akt1_human AKT1, P31749 (P31749 whole entry): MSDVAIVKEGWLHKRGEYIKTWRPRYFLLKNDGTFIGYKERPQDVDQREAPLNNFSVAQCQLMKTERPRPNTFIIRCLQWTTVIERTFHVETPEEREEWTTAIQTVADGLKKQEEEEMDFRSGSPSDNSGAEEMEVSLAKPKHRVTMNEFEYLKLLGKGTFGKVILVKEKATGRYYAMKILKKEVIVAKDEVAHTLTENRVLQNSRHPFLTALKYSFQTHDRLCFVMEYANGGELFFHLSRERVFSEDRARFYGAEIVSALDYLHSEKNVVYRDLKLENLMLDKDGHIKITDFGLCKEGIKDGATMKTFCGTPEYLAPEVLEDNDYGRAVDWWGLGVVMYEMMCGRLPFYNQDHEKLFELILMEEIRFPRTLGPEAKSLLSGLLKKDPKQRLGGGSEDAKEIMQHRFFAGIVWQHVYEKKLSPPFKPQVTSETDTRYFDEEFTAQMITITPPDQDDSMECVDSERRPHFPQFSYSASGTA

effect of a mutation on the interaction	Variant
disrupting interaction	S193A

From IntAct's records for PubMed 19198587
